Test results reported in patent publication US20020169118A1 (Amgen, published 2002).

Target: T1, TNF-β (lymphotoxin) (UniProt P01374 35-205, limits assumed)
T1 sequence (looked up): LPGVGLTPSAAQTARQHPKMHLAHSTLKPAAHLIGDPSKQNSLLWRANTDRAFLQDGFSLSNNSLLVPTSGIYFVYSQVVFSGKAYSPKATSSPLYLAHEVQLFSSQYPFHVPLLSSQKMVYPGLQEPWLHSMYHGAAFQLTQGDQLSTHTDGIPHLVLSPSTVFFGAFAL
Assay: preliminary competition binding tests; reference TNF-α

B1: TNF-BP (TNF binding protein), natural, purified from dialyzed urine of uraemia patients (receptor)
chain: DSVCPQGKYIHPQNNSICCTKCHKGTYLYNDCPGPGQDTDCRECESGSFTASENHLRHCLSCSKCRKEMGQVEISSCTVDRDTVCGCRKNQYRHYWSENLFQCFNCSLCLNGTVHLSCQEKQNTVCTCHAGFFLRENECVSCSNCKKSLECTKLCLPQIEN
modifications: glycoprotein; Asn-25 glycosylated (numbering of the TNF-BP cDNA sequence, Leu-1 = first residue after the signal peptide)
notes: Soluble extracellular part of the human TNF receptor; The main form (about 80% of the protein) starts at Asp-12; also called natural TNF-BP
affinity for TNF-β relative to its affinity for TNF-α: ~0.02 fold
